Source: paper PMC12677907

Target: BoABA2, purified protein (GST pull-down and enzyme assay) (cabbage (Brassica oleracea var. capitata))

BoCML37, purified protein (GST pull-down and enzyme assay) (natural protein)
BoABA2 catalytic activity in converting xanthoxin to abscisic aldehyde in vitro, co-incubated with BoCML37 in the presence of Ca2+, relative to BoABA2 alone: 3.88 fold
